Results reported in paper PMC8720176.
Like-named read-outs stand apart in the source and are kept apart here.

T1: T88E-Δ30-EXO5 (Homo sapiens, UniProt Q9H790 31-373, T88E;del1-30)
T1 sequence: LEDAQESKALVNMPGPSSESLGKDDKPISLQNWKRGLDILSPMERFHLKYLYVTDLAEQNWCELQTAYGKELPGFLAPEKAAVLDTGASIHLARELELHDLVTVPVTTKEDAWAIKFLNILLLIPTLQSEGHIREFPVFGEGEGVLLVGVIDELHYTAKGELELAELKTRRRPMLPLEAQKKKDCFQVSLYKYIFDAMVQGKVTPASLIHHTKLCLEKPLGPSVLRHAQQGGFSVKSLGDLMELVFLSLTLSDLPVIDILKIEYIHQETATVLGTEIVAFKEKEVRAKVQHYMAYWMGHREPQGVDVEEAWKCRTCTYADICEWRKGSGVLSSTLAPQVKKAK

T2: Δ30-EXO5 WT (Homo sapiens, UniProt Q9H790 31-373, del1-30)
T2 sequence: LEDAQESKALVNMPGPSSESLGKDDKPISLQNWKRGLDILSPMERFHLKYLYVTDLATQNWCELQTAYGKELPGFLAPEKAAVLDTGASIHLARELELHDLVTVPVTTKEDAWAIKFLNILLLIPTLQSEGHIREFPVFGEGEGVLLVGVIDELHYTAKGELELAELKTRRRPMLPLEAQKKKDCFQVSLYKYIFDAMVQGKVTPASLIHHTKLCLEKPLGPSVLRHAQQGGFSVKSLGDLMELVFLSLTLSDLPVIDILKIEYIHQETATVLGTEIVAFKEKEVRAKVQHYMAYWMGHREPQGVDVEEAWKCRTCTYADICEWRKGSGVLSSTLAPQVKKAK


Assays:
Experiment in all cases: X-ray crystallography
T88E-Δ30-EXO5 = target: T1, T88E-Δ30-EXO5
Δ30-EXO5 WT [1] = target: T2, Δ30-EXO5 WT
Δ30-EXO5 WT [2] = target: T2, Δ30-EXO5 WT; remark: listed apart in the source

| Binder | binding result (T88E-Δ30-EXO5) | binding result (Δ30-EXO5 WT [1]) | binding result (Δ30-EXO5 WT [2]) |
| --- | --- | --- | --- |
| TTTTTTTTTTTT (ssDNA, 3' thiol modifier C3 S-S) [dT12] | binds | binds |  |
| ATTGCTGAAGGG (ssDNA) [12mer] |  |  | binds |
